Assay results taken from patent publication US20080181886A1 (Genentech, published 2008).
Numbering of substitutions follows the chain as printed.

B1: TACI_d2 F78I (receptor)
chain: SLSCRKEQGKIYDHLLRDCISCASICGQHPKQCAYFCENKLR
notes: phage library variant, format as m9
B2: TACI_d2 F78P (receptor)
chain: B1 chain with I11P
notes: as for B1
B3: TACI_d2 F78Q (receptor)
chain: B1 chain with I11Q
notes: as for B1
B4: TACI_d2 I92D (receptor)
chain: B1 chain with I11F, I25D
notes: as for B1
B5: TACI_d2 F78H (receptor)
chain: B1 chain with I11H
notes: as for B1
B6: TACI_d2 Y79S (receptor)
chain: B1 chain with I11F, Y12S
notes: as for B1
B7: TACI_d2 R84G (receptor)
chain: B1 chain with I11F, R17G
notes: as for B1
B8: TACI_d2 F78M (receptor)
chain: B1 chain with I11M
notes: as for B1
B9: TACI_d2 F78K (receptor)
chain: B1 chain with I11K
notes: as for B1
B10: TACI_d2 F78N (receptor)
chain: B1 chain with I11N
notes: as for B1
B11: TACI_d2 I92G (receptor)
chain: B1 chain with I11F, I25G
notes: as for B1
B12: TACI_d2 I92F (receptor)
chain: B1 chain with I11F, I25F
notes: as for B1
B13: TACI_d2 F78G (receptor)
chain: B1 chain with I11G
notes: as for B1
B14: TACI_d2 F78C (receptor)
chain: B1 chain with I11C
notes: as for B1
B15: TACI_d2 F78Y (receptor)
chain: B1 chain with I11Y
notes: as for B1
B16: TACI_d2 F78R (receptor)
chain: B1 chain with I11R
notes: as for B1
B17: TACI_d2 F78L (receptor)
chain: B1 chain with I11L
notes: as for B1
B18: TACI_d2 I92C (receptor)
chain: B1 chain with I11F, I25C
notes: as for B1
B19: TACI_d2 F78T (receptor)
chain: B1 chain with I11T
notes: as for B1
B20: TACI_d2 F78W (receptor)
chain: B1 chain with I11W
notes: as for B1
B21: TACI_d2 F78D (receptor)
chain: B1 chain with I11D
notes: as for B1
B22: TACI_d2 F78E (receptor)
chain: B1 chain with I11E
notes: as for B1
B23: TACI_d2 R84P (receptor)
chain: B1 chain with I11F, R17P
notes: as for B1
B24: TACI_d2 I92E (receptor)
chain: B1 chain with I11F, I25E
notes: as for B1
B25: TACI_d2 E105A (receptor)
chain: B1 chain with I11F, E38A
notes: as for B1
B26: TACI_d2 K73E (receptor)
chain: B1 chain with K6E, I11F
notes: as for B1
B27: TACI_d2 K98E (receptor)
chain: B1 chain with I11F, K31E
notes: as for B1
B28: TACI_d2 H96D (receptor)
chain: B1 chain with I11F, H29D
notes: as for B1
B29: TACI_d2 S88A (receptor)
chain: B1 chain with I11F, S21A
notes: as for B1
B30: TACI_d2 K77A (receptor)
chain: B1 chain with K10A, I11F
notes: as for B1
B31: TACI_d2 K98A (receptor)
chain: B1 chain with I11F, K31A
notes: as for B1
B32: TACI_d2 Q95A (receptor)
chain: B1 chain with I11F, Q28A
notes: as for B1
B33: TACI_d2 H81A (receptor)
chain: B1 chain with I11F, H14A
notes: as for B1
B34: TACI_d2 S91A (receptor)
chain: B1 chain with I11F, S24A
notes: as for B1
B35: TACI_d2 Q95E (receptor)
chain: B1 chain with I11F, Q28E
notes: as for B1
B36: TACI_d2 L108P (receptor)
chain: B1 chain with I11F, L41P
notes: as for B1
B37: TACI_d2 L83P (receptor)
chain: B1 chain with I11F, L16P
notes: as for B1
B38: TACI_d2 Q95P (receptor)
chain: B1 chain with I11F, Q28P
notes: as for B1
B39: TACI_d2 H81D (receptor)
chain: B1 chain with I11F, H14D
notes: as for B1
B40: TACI_d2 L83A (receptor)
chain: B1 chain with I11F, L16A
notes: as for B1
B41: TACI_d2 Q99A (receptor)
chain: B1 chain with I11F, Q32A
notes: as for B1
B42: TACI_d2 Y102S (receptor)
chain: B1 chain with I11F, Y35S
notes: as for B1
B43: TACI_d2 F103S (receptor)
chain: B1 chain with I11F, F36S
notes: as for B1
B44: TACI_d2 K107E (receptor)
chain: B1 chain with I11F, K40E
notes: as for B1
B45: TACI_d2 H96A (receptor)
chain: B1 chain with I11F, H29A
notes: as for B1
B46: TACI_d2 N106D (receptor)
chain: B1 chain with I11F, N39D
notes: as for B1
B47: TACI_d2 P97A (receptor)
chain: B1 chain with I11F, P30A
notes: as for B1
B48: TACI_d2 G76A (receptor)
chain: B1 chain with G9A, I11F
notes: as for B1

target: T1, Murine APRIL (mouse, UniProt Q9D777 105-241, limits assumed); experiment: NNS library, phage display;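 note: ligand versus display occurrence-to-degeneracy ratio and higher means enriched by binding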
T1 sequence (looked up): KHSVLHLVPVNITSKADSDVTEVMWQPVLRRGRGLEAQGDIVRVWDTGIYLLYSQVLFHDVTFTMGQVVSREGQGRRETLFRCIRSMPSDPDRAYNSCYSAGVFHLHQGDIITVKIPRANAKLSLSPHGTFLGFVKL
Protocol: (§1) This new phage library was subjected to sorting against either BAFF, APRIL or the display target antibody. After 3 rounds of sorting, approximately 48 clones were picked from each selection and the DNA sequences of the phage clones were determined. […] The normalized F′ value corrects for display bias and is calculated as the percent occurrence to percent degeneracy ratio for ligand selection divided by the percent occurrence to percent degeneracy ratio for display efficiency. Percent occurrence is calculated by dividing the number of times a particular amino acid appeared at a particular position by the total number of amino acids sequenced at that position followed by multiplying by 100. Percent degeneracy is calculated by dividing the degeneracy in code for a particular amino acid divided by the total degeneracy possible at that position followed by multiplying by 100 (e.g., if only A, G and I were selected, total degeneracy possible would be 5).

Binder	F' APRIL
B1	7
B2	0
B3	0
B4	0
B5	0
B6	0
B7	1
B8	0
B9	0
B10	0
B11	0
B12	0
B13	0
B14	0
B15	61
B16	0
B17	0
B18	0
B19	1
B20	0
B21	0
B22	0
B23	0
B24	0

target: human BAFF (human, UniProt Q9Y275 82-285, limits assumed); experiment: NNS library, phage display;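 note: ligand versus display occurrence-to-degeneracy ratio and higher means enriched by binding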
Sequence (Q9Y275 82-285 limits assumed): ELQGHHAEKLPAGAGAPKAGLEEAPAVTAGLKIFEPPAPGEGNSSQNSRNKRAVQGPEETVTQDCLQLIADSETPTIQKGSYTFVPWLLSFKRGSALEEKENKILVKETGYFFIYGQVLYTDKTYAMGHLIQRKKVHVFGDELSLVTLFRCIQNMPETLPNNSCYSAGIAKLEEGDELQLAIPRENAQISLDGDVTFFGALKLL
Protocol: as §1

Binder	F' BAFF
B1	10
B2	0
B3	0
B4	0
B5	0
B8	1
B9	0
B10	0
B11	0
B12	0
B13	0
B14	0
B15	41
B16	0
B17	0
B18	0
B19	0
B20	0
B21	0
B22	5
B24	0

target: T1, Murine APRIL; experiment: shotgun scan, phage display
Source text: Phage from each of the libraries described above were subjected to rounds of binding selection against APRIL, BAFF, or anti-tag antibody (3C8:2F4 Genentech, Inc.) immobilized on 96-well Nunc Maxisorp immunoplates (Sidhu, 2001). BSA-coated wells were used to determine non-specific background binding. Phage eluted from each target were propagated in E. coli XL1-Blue in the presence of M13K07 helper phage; amplified phage were used for selection against the same target in the […] round. […] Enrichment was calculated from the ratio of the phage titer eluted from the target-coated wells to the phage titer eluted from the BSA-coated wells. Individual clones from each library and selection target were then grown in a 96-well format in 400 ul of 2YT medium supplemented with carbenicillin and KO7 helper phage. […] Sequences of acceptable quality were translated and aligned. For APRIL-binding, 71, 40, and 54 sequences were analyzed from libraries one, two and three, respectively. For BAFF-binding, 70, 50, and 53 sequences were analyzed for libraries one, two and three, respectively. For the display selection, a minimum of 47 sequences were analyzed for each library. […] F values describe the effect of mutation on target binding, while accounting for differences in display efficiencies, with values >1 representing deleterious mutations and those <1 representing favorable mutations.

Binder	F (APRIL)
B25	1.7
B26	7.7
B27	6.9
B28	> 24
B29	3.8
B30	1
B31	3.5
B32	6.6
B6	31
B7	1.8
B33	2
B34	2.1
B35	21
B36	1.4
B37	> 20
B38	> 39
B39	0.9
B40	31
B41	1.9
B42	1.5
B43	5.8
B44	2.1
B45	12
B23	> 22
B46	1.2
B47	> 20
B48	1.6
